B1: library; numbered along this chain (parent)
chain: MRKPRAAVGSGHRKQAASQEGRQKHAKNNSQAKPSACDGLARQPEEVVLQASVSSYHLFRDVAEVTAFRGSLLSWYDQEKRDLPWRRRAEDEMDLDRRAYAVWVSEVMLQQTQVATVINYYTGWMQKWPTLQDLASASLEEVNQLWAGLGYYSRGRRLQEGARKVVEELGGHMPRTAETLQQLLPGVGRYTAGAIASIAFGQATGVVDGNVARVLCRVRAIGADPSSTLVSQQLWGLAQQLVDPARPGDFNQAAMELGATVCTPQRPLCSQCPVESLCRARQRVEQEQLLASGSLSGSPDVEECAPNTGQCHLCLPPSEPWDQTLGVVNFPRKASRKPPREESSATCVLEQPGALGAQILLVQRPNSGLLAGLWEFPSVTWEPSEQLQRKALLQELQRWAGPLPATHLRHLGEVVHTFSHIKLTYQVYGLALEGQTPVTTVPPGARWLTQEEFHTAAVSTAMKKVFRVYQGQQPGTCMGSKRSQVSSPCSRKKPRMGQQVLDNFFRSHISTDAHSLNSAAQ

Variants of: B1
Assay: 8OG:A repair function score (normalized; synonymous = 0, nonsense = -1) (normalized log-likelihood score); higher = more repair activity (WT-like)
Conditions: with 8OG:A DNA repair reporter (GFP) in HEK-293 MUTYH KO cells
Method in brief: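 After 72 h, viable mCherry+ cells were split into GFP+ (repair) and GFP− bins in three replicates per tile. These cells were MUTYH knockout HEK-293 cells holding lentiviral MUTYH cDNA NNN codon-scan libraries, kept in 10 pg/ml doxycycline and co-transfected with mCherry plus an 8OG:A GFP repair reporter. Sequencing of tile amplicons gave per-tile Rosace fitness scores, normalized into a repair function score anchored on synonymous and nonsense distributions. Synonymous medians were fixed at 0, nonsense at -1, and variants under 300 counts per million at the start were removed.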
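Further: cells sorted at 72 h after reporter transfection.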

8OG:A repair function score: each site, then its substitutions
A259: F -0.503, E -0.0308, Q 0.0355, P -1.09, G -0.148, V -0.765, I -0.953, C -0.242, K -0.197, D -1, L -0.889, T -0.329, Y -0.675, W -0.859, M -0.739, R -0.0545, S -0.0739, H -0.138, N -0.257
T263: F -0.0981, I -0.0749, D -0.24, G -0.115, K -0.017, C -0.141, E -0.267, A -0.167, H -0.124
M255: K -1.01, Q -0.993, L -0.962, P -1, F -0.873, R -1.03, H -1.03, I -0.363, T -0.883, D -1.03, N -1.03, G -1.02, W -1.04, Y -1.02, V -0.846, C -0.788, E -0.876, A -0.993, S -1.01
V261: D -0.737, T -0.0821, Q -0.57, M -0.124, K -0.147, F -0.278, P -0.891, E -0.804, C -0.11, Y -0.342, L -0.0765, A -0.399, H -0.25, R -0.0976, N -0.379, S -0.503, I -0.0723, G -0.599, W -0.489
A254: Q -0.213, N -0.427, H -0.175, L 0.114, I 0.133, S -0.223, R -0.99, T -2.58e-05, V 0.0529, P -0.979, M 0.317, Y -0.534, K -0.725, W -0.393
T260: V -0.0429, Y -0.385, G -0.126, F -0.281, R -0.0323, Q -0.0253, A -0.056, K -0.0184, P -1.17, E -0.154, C -0.129, D -0.355, M -0.0209, S -0.104, I -0.0181, L -0.00446, H -0.293, W -0.207, N -0.111
L257: W -0.968, N -1.21, M -0.192, S -0.983, I -0.176, V -0.182, D -0.98, E -1.08, Y -0.76, T -0.763, A -0.805, Q -0.72, H -0.401, G -1.04, K -1.22, F -0.285, R -1.09, P -1, C -0.298
G258: D -1.04, H -1.65, Y -1.23, F -1.24, T -1.21, R -1.2, N -1.2, P -1.06, V -1.2, C -1.12, W -1.49, L -1.12, S -1.05, E -1.27, Q -1.21, M -1.19, K -1.14, I -1.02
C262: A -1.38, G -1, N -1.19, Q -1.27, K -1.3, F -1.14, P -1.18, T -1.19, V -1.26, D -1.2, E -1.28, H -1.1, I -1.12, W -0.941, L -1.26, R -1.05, M -1.06, Y -1.21, S -1.38
E256: V -1.14, R -0.814, L -0.906, F -0.679, H -1.34, T -0.514, G -0.676, A -0.756, I -0.901, S -0.507, C -0.939, P -1.07

— the supplement of paper PMC11908140
